Square brackets hold non-standard residues; d marks the D form. Primed or numbered codes have the meaning given here. Ends that are not written are not given here. * marks the point of attachment. PEG6‑diacid = 4,7,10,13,16,19,22-Heptaoxapentacosane-1,25-dioic acid, O=C(O)CCOCCOCCOCCOCCOCCOCCOCCC(=O)*; PEG8‑diacid = PEG8-diacid linker: 4,7,10,13,16,19,22,25,28-nonaoxahentriacontane-1,31-dioic acid; cyclohexylethyl″ = cyclohexylethyl group on the nitrogen (N-alkyl substituent), C1CCC(CC*)CC1; PEG4‑diacid = 4,7,10,13,16-pentaoxanonadecane-1,19-dioic acid; (naphthalen-2-yl)ethyl = c1ccc2cc(CC*)ccc2c1; Cyclohexylmethyl = C1CCC(C*)CC1; NMeE = CN[C@@H](CCC(=O)O)C(=O)O; cyclohexylethyl = C1CCC(CC*)CC1; NMeA = CN[C@@H](C)C(=O)O; Bn = c1ccc(C*)cc1
B1: QTDV (65) (peptide)
peptide: QTDV
B2: ATDV (66) (peptide)
peptide: ATDV
B3: ATAV (68) (peptide)
peptide: ATAV
B4: ATDV (71), N-cyclohexylethyl (peptide)
peptide: {cyclohexylethyl″}-ATDV-OH
SMILES: CC(C)[C@H](NC(=O)[C@H](CC(=O)O)NC(=O)[C@@H](NC(=O)[C@H](C)NCCC1CCCCC1)[C@@H](C)O)C(=O)O
B5: ATAV (73), N-cyclohexylethyl (peptide)
peptide: cyclohexylethyl-ATAV
B6: N-Cyclohexylethyl-ETAV (56) (peptide)
peptide: cyclohexylethyl-ETAV
B7: ETDV (69), N-cyclohexylethyl (peptide)
peptide: {cyclohexylethyl″}-ETDV-OH
SMILES: CC(C)[C@H](NC(=O)[C@H](CC(=O)O)NC(=O)[C@@H](NC(=O)[C@H](CCC(=O)O)NCCC1CCCCC1)[C@@H](C)O)C(=O)O
B8: QTAV (72), N-cyclohexylethyl (peptide)
peptide: cyclohexylethyl-QTAV
B9: QTAV (67) (peptide)
peptide: QTAV
B10: Compound 80 (IESDV dimerized with PEG1-diacid) (peptide)
peptide: {PEG1‑diacid}-IESDV
modifications: also: dimer: two peptides N-terminally joined via PEG1-diacid
notes: Dimeric ligand
B11: (IESDV)2PEG8 (76) (peptide)
peptide: {PEG8‑diacid}-IESDV
modifications: also: dimer: two peptides N-terminally joined via PEG8-diacid
notes: Dimeric ligand
B12: (IESDV)2PEG6 (77) (peptide)
peptide: {PEG6‑diacid}-IESDV
modifications: also: dimer: two peptides N-terminally joined via PEG6-diacid
notes: Dimeric ligand
B13: Compound 79 (IESDV dimerized with PEG2-diacid) (peptide)
peptide: {PEG2‑diacid}-IESDV
modifications: also: dimer: two peptides N-terminally joined via PEG2-diacid
notes: Dimeric ligand
B14: N-(Naphtalene-2-yl)ethyl-ETAV (63) (peptide)
peptide: {(naphthalen-2-yl)ethyl}-ETAV
B15: N-Cyclohexylmethyl-ETAV (55) (peptide)
peptide: Cyclohexylmethyl-ETAV
B16: N-Benzyl-ETAV (58) (peptide)
peptide: Bn-ETAV
B17: N-(3,4-Dichlorophenyl)propyl-ETAV (61) (peptide)
peptide: ETAV
modifications: not fully specified
notes: The printed formula C25H37Cl2N4O8 and the comparison with 59 point to an ethyl spacer, the printed name says propyl
B18: N-Ethyl-ETAV (52) (peptide)
peptide: Et-ETAV
B19: N-(3,4-Difluorophenyl)propyl-ETAV (62) (peptide)
peptide: ETAV
modifications: not fully specified
notes: The printed formula C25H37F2N4O8 points to an ethyl spacer, the printed name says propyl
B20: N-Butyl-ETAV (54) (peptide)
peptide: butyl-ETAV
B21: N-Phenylpropyl-ETAV (60) (peptide)
peptide: phenylpropyl-ETAV
B22: N-Phenylethyl-ETAV (59) (peptide)
peptide: Phenylethyl-ETAV
B23: Compound 84 (ESDV dimerized with PEG12) (peptide)
peptide: ESDV
modifications: also: dimer: two peptides joined at N-terminal amines by amide bonds through a PEG12-diacid linker
notes: Dimeric ligand
B24: Compound 85 (ESDV dimerized with PEG8) (peptide)
peptide: ESDV
modifications: also: dimer: two peptides joined at N-terminal amines by amide bonds through a PEG8-diacid linker
notes: Dimeric ligand
B25: (IATAMeV)2PEG4 (90) (peptide)
peptide: {PEG4‑diacid}-IAT[NMeA]V-OH
modifications: also: dimer: two peptides N-terminally joined via PEG4-diacid
notes: Dimeric ligand
B26: (IATAV)2PEG4 (88) (peptide)
peptide: IATAV
modifications: also: dimer: two peptides joined at N-terminal amines by amide bonds through a PEG4-diacid linker
notes: Dimeric ligand
B27: IATAMeV (89) (peptide)
peptide: IAT[NMeA]V
B28: (IATAV)2PEG12 (87) (peptide)
peptide: IATAV
modifications: also: dimer: two peptides joined at N-terminal amines by amide bonds through a PEG12-diacid linker
notes: Dimeric ligand
B29: ETAV (51) (peptide)
peptide: ETAV
B30: ETDV (64) (peptide)
peptide: ETDV
notes: also called 28 (ESDV with Ser P^-2 replaced by Thr)
B31: QTDV (70), N-cyclohexylethyl (peptide)
peptide: {cyclohexylethyl″}-QTDV-OH
B32: Compound 38 (EMeTXV with X = Asn) (peptide)
peptide: [NMeE]TNV
B33: ETNV (31) (peptide)
peptide: ETNV
notes: number 31 only on the sheet
B34: ETQV (32) (peptide)
peptide: ETQV
notes: number 32 only on the sheet
B35: Compound 22 (ESDV with Asp P^-1 replaced by Gln) (peptide)
peptide: ESQV
B36: Compound 23 (ESDV with Asp P^-1 replaced by Glu) (peptide)
peptide: ESEV
B37: Compound 24 (ESDV with Asp P^-1 replaced by Asn) (peptide)
peptide: ESNV
B38: EMeTDV (36) (peptide)
peptide: [NMeE]TDV
B39: EMeTQV (39) (peptide)
peptide: [NMeE]TQV
B40: Compound 18 (ESDV with N-methylated Glu at P^-3) (peptide)
peptide: [NMeE]SDV

What follows are binders tested against T1, HIS-PDZ1 protein (PSD-95 PDZ1, residues 61-151, with tag …) (human, UniProt P78352 61-151) (assay: FP competition, fluorescent NR2B probe).
T1 construct: expressed in E. coli

Binder	Ki
B1	58 µM
B2	30 µM
B3	64 µM
B4	5.8 µM
B5	8.9 µM
B6	0.94 µM
B7	1.8 µM
B8	21 µM
B9	112 µM

These binders were tested against T2, HIS-PDZ2 protein (PSD-95 PDZ2, residues 155-249, with tag …) (human, UniProt P78352 155-249) (assay: FP competition, fluorescent NR2B probe).

Binder	Ki
B1	60 µM
B2	38 µM
B3	73 µM
B4	3.6 µM
B5	8.1 µM
B6	0.45 µM
B7	0.75 µM
B8	12 µM
B9	108 µM

The binders below were run against T3, HIS-PDZ1-2 protein (PSD-95 PDZ1-2 tandem, residues 61-249, with tag …) (human, UniProt P78352 61-249) (assay: ITC).

Binder	Kd
B10	0.46 µM
B11	0.12 µM
B12	0.039 µM
B13	0.22 µM

What follows are binders tested against T3, HIS-PDZ1-2 protein (PSD-95 PDZ1-2 …) (assay: FP competition, fluorescent NR2B probe; exact Ki not calculable).

Binder	Ki
B11	~0.1 µM
B12	~0.1 µM

Target: T1, HIS-PDZ1 protein (PSD-95 PDZ1, residues …)
Experiment: FP competition, fluorescent NR2B probe
Remark: another data set of the same source

Binder	Ki
B14	1 µM
B6	0.94 µM
B15	1 µM
B16	7.2 µM
B17	2.4 µM
B18	9.3 µM
B19	0.98 µM
B20	8.4 µM

Target: T2, HIS-PDZ2 protein (PSD-95 PDZ2, residues …)
Experiment: FP competition, fluorescent NR2B probe
Remark: another data set of the same source

Binder	Ki
B14	0.95 µM
B21	3.1 µM
B6	0.45 µM
B15	1.3 µM
B22	1.6 µM
B16	5.2 µM
B17	1.1 µM
B18	9.6 µM
B19	1 µM
B20	4 µM

The binders below were run against T3, HIS-PDZ1-2 protein (PSD-95 PDZ1-2 …) (assay: FP competition, fluorescent NR2B probe).

Binder	Ki
B23	0.92 µM
B10	0.56 µM
B13	0.27 µM
B24	1 µM
B25	13 µM
B26	1.1 µM
B27	142 µM
B28	1 µM

Target: T2, HIS-PDZ2 protein (PSD-95 PDZ2, residues …)
Experiment: FP competition, fluorescent NR2B probe
Remark: another data set of the same source

Binder	Ki
B10	4.7 µM
B11	2.6 µM
B12	2 µM
B13	4.7 µM
B24	19 µM
B25	103 µM
B27	104 µM
B28	13 µM

The binders below were run against T4, HIS-PDZ3 protein (PSD-95 PDZ3, residues 309-401, with tag …) (human, UniProt P78352 309-401) (assay: FP competition, fluorescent CRIPT probe).

Binder	Ki	binding result
B29	260 µM	–
B1	–	no binding
B2	–	no binding
B3	400 µM	–
B5	89 µM	–
B6	11 µM	–
B30	–	no binding
B7	–	no binding
B8	141 µM	–
B31	–	no binding

The binders below were run against T1, HIS-PDZ1 protein (PSD-95 PDZ1, residues …) (assay: FP competition assay (Ki), fluorescent NR2B probe displaced from the PDZ domain; bar chart).

Binder	binding result
B32	binds
B33	binds
B34	binds

These binders were tested against T2, HIS-PDZ2 protein (PSD-95 PDZ2, residues …) in the same assay as above.

Binder	binding result
B32	binds
B33	binds
B34	binds

Target: T4, HIS-PDZ3 protein (PSD-95 PDZ3, residues …)
Experiment: FP competition, fluorescent CRIPT probe
Remark: another data set of the same source

Binder	Ki
B29	260 µM
B14	10 µM
B6	11 µM
B15	21 µM
B16	63 µM
B17	6.7 µM
B18	69 µM
B19	7.8 µM

Target: T1, HIS-PDZ1 protein (PSD-95 PDZ1, residues …)
Experiment: FP competition, fluorescent NR2B probe
Remark: another data set of the same source

Binder	binding result	fold more potent than WT peptide 1	fold higher Ki compared to peptide 1
B35	binds	–	–
B36	binds	–	–
B37	binds	–	–
B38	–	~3 fold	–
B39	–	~3 fold	–
B40	–	–	1.3 fold

Target: T2, HIS-PDZ2 protein (PSD-95 PDZ2, residues …)
Experiment: FP competition, fluorescent NR2B probe
Remark: another data set of the same source

Binder	binding result	fold higher Ki compared to peptide 1
B35	binds	–
B36	binds	–
B37	binds	–
B40	–	3.7 fold

Reference: patent US20160176924A1 (UNIVERSITY OF COPENHAGEN, published 2016)
